Measured values published in PMC8458281, “Computational modeling and experimental validation of the EPI-X4/CXCR4 complex allows rational design of small peptide antagonists” (Communications Biology, 2021).
Values belong to the molecule of their own block, whether it stands above or below them. No end group written: not given here.

Assays:
CXCR4 V112A [1] = test: 12G5 antibody competition, 293T cells transfected with CXCR4 V112A; format: binding, human; details: IC50 on CXCR4 V112A relative to wt
Protocol: (§1) Fig. 4 The interactions of EPI-X4 and the EPI-X4 derivatives WSC02 and JM#21 with point-mutated CXCR4 were assessed by an antibody competition assay. Amino acid substitutions were introduced in the sequence of CXCR4 by site-directed mutagenesis, cloned into an IRES-eGFP expression vector, and transfected into 293 T cells. Afterward, cells were incubated with serially diluted EPI-X4 (a, b), WSC02 (c, d), or JM#21 (e, f) in presence of a constant concentration of CXCR4 specific antibody (clone 12G5). After 2 h, bound antibody was analyzed by flow cytometry. a, c, e) Representative dose-dependent replacement of 12G5 antibody by peptides. b, d, f) IC50 values were calculated by nonlinear regression. Shown are data derived from at least three individual experiments ± SEM. IC50 values were set to 1000 µM (EPI-X4 and WSC02) or 100 µM (JM#21) if the value exceeds the maximally used concentration. *p ≤ 0.05, ***p ≤ 0.001 (one-way ANOVA for comparison with wt). For IC50 values see Table 1. For all binding curves see also Fig. S8.
(§2) Mutated CXCR4 constructs were transfected into 293 T cells that have a very low endogenous expression level of wild-type CXCR4. Transfected cells were then analyzed for CXCR4 surface expression (Fig. S5a) and EPI-X4 binding using a flow cytometry-based antibody competition assay (Fig. S5b, c)[33]. […]

CXCR4 D97S [2] = test: 12G5 antibody competition, 293T cells transfected with CXCR4 D97S; format: binding, human; details: IC50 on CXCR4 D97S relative to wt
Protocol: as §1, §2

CXCR4 D187E [3] = test: 12G5 antibody competition, 293T cells transfected with CXCR4 D187E; format: binding, human; details: IC50 on CXCR4 D187E relative to wt
Protocol: as §1, §2

[4] = tested on: CXCR4 D97E + V112A + L41A; test: 12G5 antibody competition, 293T cells transfected with CXCR4 D97E + V112A + L41A; format: binding, human; details: IC50 on CXCR4 D97E + V112A + L41A relative to wt
Protocol: as §1, §2

CXCR4 V112A + L41A [5] = test: 12G5 antibody competition, 293T cells transfected with CXCR4 V112A + L41A; format: binding, human; details: IC50 on CXCR4 V112A + L41A relative to wt
Protocol: as §1, §2

CXCR4 D97E [6] = test: 12G5 antibody competition, 293T cells transfected with CXCR4 D97E; format: binding, human; details: IC50 on CXCR4 D97E relative to wt
Protocol: as §1, §2

CXCR4 D262A [7] = test: 12G5 antibody competition, 293T cells transfected with CXCR4 D262A; format: binding, human; details: IC50 on CXCR4 D262A relative to wt
Protocol: as §1, §2

CXCR4 E277A [8] = test: 12G5 antibody competition, 293T cells transfected with CXCR4 E277A; format: binding, human; details: IC50 on CXCR4 E277A relative to wt
Protocol: as §1, §2

CXCR4 D97E + V112A [9] = test: 12G5 antibody competition, 293T cells transfected with CXCR4 D97E + V112A; format: binding, human; details: IC50 on CXCR4 D97E + V112A relative to wt
Protocol: as §1, §2

CXCR4 L41A [10] = test: 12G5 antibody competition, 293T cells transfected with CXCR4 L41A; format: binding, human; details: IC50 on CXCR4 L41A relative to wt
Protocol: as §1, §2

CXCR4 D97E + V112L [11] = test: 12G5 antibody competition, 293T cells transfected with CXCR4 D97E + V112L; format: binding, human; details: IC50 on CXCR4 D97E + V112L relative to wt
Protocol: as §1, §2

[12] = target: T1, C-X-C motif chemokine receptor 4 (CXCR4) on SupT1 cells (human (endogenous in SupT1), UniProt P61073 1-352); test: flow cytometry on cells; 12G5 antibody competition on SupT1 cells; peptides in PBS with APC-conjugated 12G5 at a concentration close to its EC50, 4 °C, 2 h; MFI normalized to PBS control; IC50 by nonlinear regression; details: one partner purified
T1 construct: CXCR4 as expressed on SupT1 cells; source: endogenous, on SupT1 cells

[13] = target: CXCR4 D97E + V112A + L41A (human, UniProt P61073-1 1-352, L41A | D97E | V112A); test: FACS
CXCR4 D97E [14] = target: CXCR4 D97E (human, UniProt P61073-1 1-352, D97E); test: FACS
CXCR4 D97E (human, UniProt P61073-1 1-352, D97E), sequence (P61073 whole entry D97E): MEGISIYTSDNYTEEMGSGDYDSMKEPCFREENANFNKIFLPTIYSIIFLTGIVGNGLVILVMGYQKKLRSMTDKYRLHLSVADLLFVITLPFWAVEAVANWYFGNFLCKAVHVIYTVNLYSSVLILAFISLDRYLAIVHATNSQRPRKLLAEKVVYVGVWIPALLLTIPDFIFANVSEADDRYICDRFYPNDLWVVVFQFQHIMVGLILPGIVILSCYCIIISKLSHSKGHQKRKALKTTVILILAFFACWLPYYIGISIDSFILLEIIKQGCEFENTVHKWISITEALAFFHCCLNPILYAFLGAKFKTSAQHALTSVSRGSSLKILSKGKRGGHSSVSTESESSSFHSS

CXCR4 V112L = CXCR4 V112L (human, UniProt P61073-1 1-352, V112L); test: FACS
CXCR4 V112L, sequence (P61073 whole entry V112L): as the sequence (P61073 whole entry D97E) above, with E97D, V112L counted along it

CXCR4 E277A [15] = target: CXCR4 E277A (human, UniProt P61073-1 1-352, E277A); test: FACS
CXCR4 E277A (human, UniProt P61073-1 1-352, E277A), sequence (P61073 whole entry E277A): as the sequence (P61073 whole entry D97E) above, with E97D, E277A counted along it

CXCR4 D97S [16] = target: CXCR4 D97S (human, UniProt P61073-1 1-352, D97S); test: FACS
CXCR4 V112A [17] = target: CXCR4 V112A (human, UniProt P61073-1 1-352, V112A); test: FACS
CXCR4 D187E [18] = target: CXCR4 D187E (human, UniProt P61073-1 1-352, D187E); test: FACS
CXCR4 D187E (human, UniProt P61073-1 1-352, D187E), sequence (P61073 whole entry D187E): as the sequence (P61073 whole entry D97E) above, with E97D, D187E counted along it

CXCR4 D97E + V112L [19] = target: CXCR4 D97E + V112L (human, UniProt P61073-1 1-352, D97E | V112L); test: FACS
CXCR4 D97E + V112L (human, UniProt P61073-1 1-352, D97E | V112L), sequence (P61073 whole entry D97E/V112L): as the sequence (P61073 whole entry D97E) above, with V112L counted along it

CXCR4 E288A = CXCR4 E288A (human, UniProt P61073-1 1-352, E288 to Ala); test: FACS
CXCR4 D97T = CXCR4 D97T (human, UniProt P61073-1 1-352, D97T); test: FACS
CXCR4 E288D = CXCR4 E288D (human, UniProt P61073-1 1-352, E288 to Asp); test: FACS
CXCR4 E288D, sequence (P61073 whole entry E288D): as the sequence (P61073 whole entry D97E) above, with E97D, E288D counted along it

CXCR4 D262A [20] = target: CXCR4 D262A (human, UniProt P61073-1 1-352, D262A); test: FACS
CXCR4 D97N = CXCR4 D97N (human, UniProt P61073-1 1-352, D97N); test: FACS
[21] = target: T2, CXCR4 wt (transfected 293T cells) (human, UniProt P61073-1 1-352); test: FACS
T2 chain: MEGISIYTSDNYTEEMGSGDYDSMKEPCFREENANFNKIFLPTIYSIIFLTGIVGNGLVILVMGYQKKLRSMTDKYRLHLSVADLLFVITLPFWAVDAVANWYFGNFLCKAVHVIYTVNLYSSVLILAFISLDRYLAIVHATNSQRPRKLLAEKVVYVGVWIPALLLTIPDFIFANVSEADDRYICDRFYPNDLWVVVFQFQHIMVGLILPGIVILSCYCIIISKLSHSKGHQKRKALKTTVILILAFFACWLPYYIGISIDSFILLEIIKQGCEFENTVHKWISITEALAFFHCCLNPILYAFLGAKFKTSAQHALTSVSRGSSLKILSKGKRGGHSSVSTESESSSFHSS

CXCR4 D97E + V112A [22] = target: CXCR4 D97E + V112A (human, UniProt P61073-1 1-352, D97E | V112A); test: FACS
CXCR4 D97E + V112A (human, UniProt P61073-1 1-352, D97E | V112A), sequence (P61073 whole entry D97E/V112A): as the sequence (P61073 whole entry D97E) above, with V112A counted along it

CXCR4 L41A [23] = target: CXCR4 L41A (human, UniProt P61073-1 1-352, L41A); test: FACS
CXCR4 L41A (human, UniProt P61073-1 1-352, L41A), sequence (P61073 whole entry L41A): as the sequence (P61073 whole entry D97E) above, with L41A, E97D counted along it

CXCR4 D97Q = CXCR4 D97Q (human, UniProt P61073-1 1-352, D97Q); test: FACS
CXCR4 V112A + L41A [24] = target: CXCR4 V112A + L41A (human, UniProt P61073-1 1-352, L41A | V112A); test: FACS
CXCR4 V112A + L41A (human, UniProt P61073-1 1-352, L41A | V112A), sequence (P61073 whole entry L41A/V112A): as the sequence (P61073 whole entry D97E) above, with L41A, E97D, V112A counted along it

Molecule: LVRYTKKVPQVSTPTL [EPI-X4, 16-mer fragment of albumin, endogenous antagonist and inverse agonist of CXCR4]
Fold change (CXCR4 V112A [1]): 1.6
Fold change (CXCR4 D97S [2]): 112
Fold change (CXCR4 D187E [3]): 1.2
Fold change [4]: 7
Fold change (CXCR4 V112A + L41A [5]): 11
Fold change (CXCR4 D97E [6]): 18
Fold change (CXCR4 D262A [7]): 0.7
Fold change (CXCR4 E277A [8]): 1.3
Fold change (CXCR4 D97E + V112A [9]): 2.6
Fold change (CXCR4 L41A [10]): 19
Fold change (CXCR4 D97E + V112L [11]): 32

IC50 [12]: 312 nM
B1: WSC02 408–416-NH2 (peptide)
peptide: IVRWSKKVP-NH2
notes: WSC02 truncated by three residues; source: synthetic peptide (Fmoc solid-phase synthesis, HPLC-purified)

IC50 [12]: 1030 nM
B2: EPI-X4 408–416-NH2 (peptide)
peptide: LVRYTKKVP-NH2
notes: source: synthetic peptide (Fmoc solid-phase synthesis, HPLC-purified)

IC50 [12]: 954 nM
B3: EPI-X4 408–414-NH2 (peptide)
peptide: LVRYTKK-NH2
notes: as for B2

IC50 [12]: 262 nM
B4: JM#21 408–416-NH2 (peptide)
peptide: ILRWSRKLP-NH2
notes: JM#21 truncated by three residues; source: synthetic peptide (Fmoc solid-phase synthesis, HPLC-purified)

IC50 [12]: 145 nM
IC50 [13]: 400 nM
IC50 (CXCR4 D97E [14]): 1910 nM
IC50 (CXCR4 V112L): 410 nM
IC50 (CXCR4 E277A [15]): 280 nM
IC50 (CXCR4 D97S [16]): 5390 nM
IC50 (CXCR4 V112A [17]): 3450 nM
IC50 (CXCR4 D187E [18]): 310 nM
IC50 (CXCR4 D97E + V112L [19]): 370 nM
IC50 (CXCR4 E288A): 86400 nM
IC50 (CXCR4 D97T): 3830 nM
IC50 (CXCR4 E288D): 14200 nM
IC50 (CXCR4 D262A [20]): 230 nM
IC50 (CXCR4 D97N): 11000 nM
IC50 [21]: 660 nM
IC50 (CXCR4 D97E + V112A [22]): 470 nM
IC50 (CXCR4 L41A [23]): 720 nM
IC50 (CXCR4 D97Q): 8050 nM
B5: EPI-X4 JM#21 (peptide)
peptide: ILRWSRKLPCVS
notes: as for B2

IC50 [12]: 157 nM
B6: EPI-X4 JM#21 408–414-NH2 (peptide)
peptide: ILRWSRK-NH2
notes: JM#21 truncated by five residues; source: synthetic peptide (Fmoc solid-phase synthesis, HPLC-purified)

IC50 [12]: 539 nM
IC50 [13]: 5770 nM
IC50 (CXCR4 D97E [14]): 9540 nM
IC50 (CXCR4 V112L): 420 nM
IC50 (CXCR4 E277A [15]): 770 nM
IC50 (CXCR4 V112A + L41A [24]): 4700 nM
IC50 (CXCR4 D97S [16]): 20400 nM
IC50 (CXCR4 V112A [17]): 670 nM
IC50 (CXCR4 D187E [18]): 490 nM
IC50 (CXCR4 D97E + V112L [19]): 2000 nM
IC50 (CXCR4 E288A): > 100000 nM
IC50 (CXCR4 D97T): 35400 nM
IC50 (CXCR4 E288D): 83200 nM
IC50 (CXCR4 D262A [20]): 520 nM
IC50 (CXCR4 D97N): 527000 nM
IC50 [21]: 1130 nM
IC50 (CXCR4 D97E + V112A [22]): 1690 nM
IC50 (CXCR4 L41A [23]): 1710 nM
IC50 (CXCR4 D97Q): > 100000 nM
B7: WSC02 (peptide)
peptide: IVRWSKKVPCVS
notes: also called EPI-X4 WSC02; source: synthetic peptide (Fmoc solid-phase synthesis, HPLC-purified)

IC50 [12]: 469 nM
B8: WSC02 408–414-NH2 (peptide)
peptide: IVRWSKK-NH2
notes: WSC02 truncated by five residues; source: synthetic peptide (Fmoc solid-phase synthesis, HPLC-purified)
